Laboratory results published in patent publication US20190382493A1 (CYTOMX THERAPEUTICS, published 2019).

Tests used:
[1] = target: T1, mouse PDL1 (R&D Systems) (mouse, UniProt Q9EP73 19-238); test: phage ELISA, antigen adsorbed, anti-M13-HRP
T1 construct: also called mPDL1; murine PDL1
Source text: (§1) Phage were applied to the plate and allowed to bind. Bound phage were visualized with an anti-M13-HRP conjugate (GE Healthcare, Piscataway, N.Y.) and developed with the chromogenic substrate tetramethyl benzidine (TMB) (Thermo Scientific, Rockford, Ill.).

[2] = target: T2, human PDL1 (R&D Systems) (human, UniProt Q9NZQ7 19-239); test: phage ELISA, antigen adsorbed, anti-M13-HRP
T2 construct: also called hPDL1; recombinant human PDL1 protein
Source text: as §1

[3] = target: T3, human PDL1-Fc (R & D Systems) (human, UniProt Q9NZQ7 19-239); test: ELISA, PDL1-Fc adsorbed, anti-human IgG (Fab specific)-HRP
T3 construct: Bought reagent; not shown: Fc part of the bought fusion protein; not described
Experimental: (§2) Bound antibody was visualized with an anti-human IgG-HRP conjugate, Fab specific, (Sigma, St Louis, Mo.; Cat # A0293-1ML) and developed with the chromogenic substrate TMB. […] Table 5 provides the SEQ ID NOs for the nucleic acid sequences and amino acids sequences of the respective variable heavy chains.
(§3) Bound antibody was visualized with an anti-human IgG-HRP conjugate, Fab specific, (Sigma, St Louis, Mo.; Cat # A0293-1ML) and developed with the chromogenic substrate TMB.

[4] = target: T4, mouse PDL1-Fc (R & D Systems) (mouse, UniProt Q9EP73 19-238); test: as above
T4 construct: Bought reagent; not shown: Fc part of the bought fusion protein; not described
Experimental: as §2, §3

[5] = target: T5, human B7-1-Fc (R&D Systems) (human, UniProt P33681 35-242); test: ELISA, antigen adsorbed
T5 construct: not shown: Fc part of the bought fusion protein; not described
T5 sequence (looked up): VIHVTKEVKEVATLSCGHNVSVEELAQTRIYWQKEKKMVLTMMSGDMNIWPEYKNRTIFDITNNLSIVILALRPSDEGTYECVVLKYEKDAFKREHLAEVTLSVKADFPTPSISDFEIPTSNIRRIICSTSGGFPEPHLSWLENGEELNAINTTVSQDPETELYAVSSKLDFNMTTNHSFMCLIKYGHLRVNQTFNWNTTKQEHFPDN
Experimental: as §3

[6] = target: T6, human B7H3 (R&D Systems) (human, UniProt Q5ZPR3-2 29-245, limits assumed); test: ELISA, antigen adsorbed
T6 sequence (looked up): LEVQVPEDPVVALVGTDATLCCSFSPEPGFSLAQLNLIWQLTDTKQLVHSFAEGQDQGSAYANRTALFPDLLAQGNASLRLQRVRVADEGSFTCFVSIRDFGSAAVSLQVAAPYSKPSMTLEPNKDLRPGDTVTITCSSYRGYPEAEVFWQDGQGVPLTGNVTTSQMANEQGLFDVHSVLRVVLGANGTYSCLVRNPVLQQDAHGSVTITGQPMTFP
Experimental: as §3

[7] = target: T7, human CD28-Fc (R&D Systems) (human, UniProt P10747 19-152); test: ELISA, antigen adsorbed
T7 construct: not shown: Fc part of the bought fusion protein; not described
Experimental: as §3

[8] = target: T5, human B7-1-Fc (R&D Systems); test: Fab-phage ELISA, antigen adsorbed
Source text: (§4) Forty seven (47) individual isolates were chosen from the final pool. […] Briefly, the antigens were adsorbed to the wells of a 96-well ELISA plate, each ligand on a separate plate. Phage were applied to correlative wells on each plate and allowed to bind. Bound phage were visualized with an anti-M13-HRP conjugate and developed with the chromogenic substrate TMB. Based on the results of the ELISA and DNA sequence, 6 unique clones with matured heavy variable CDR3 domains and 10 heavy variable CDR2 domains were chosen for further study. […] Table 4 lists the heavy variable domains encoded by the clones and SEQ ID NOs for the nucleic acid sequences and amino acid sequences of their respective heavy chains.

[9] = target: T3, human PDL1-Fc (R & D Systems); test: Fab-phage ELISA, antigen adsorbed
Source text: as §4

[10] = target: T8, cynomolgus monkey (cyno) PDL1-Fc (Sino biological) (cynomolgus monkey, UniProt G7PSE7 19-239); test: ELISA, PDL1 adsorbed
T8 construct: Bought reagent; not shown: Fc part of the bought fusion protein; not described
Experimental: as §3

[11] = target: rat PDL1 (rat, UniProt D4AE25 19-239); test: ELISA, PDL1 adsorbed
Experimental: as §3

[12] = target: T3, human PDL1-Fc (R & D Systems); test: ELISA, PDL1 adsorbed
Experimental: as §3

[13] = target: T4, mouse PDL1-Fc (R & D Systems); test: ELISA, PDL1 adsorbed
Experimental: as §3

[14] = target: T3, human PDL1-Fc (R & D Systems); test: ELISA saturation binding (figure legend)
Experimental: as §3

[15] = target: T3, human PDL1-Fc (R & D Systems); test: ELISA saturation binding, PDL1-Fc adsorbed
Experimental: as §3

[16] = target: T4, mouse PDL1-Fc (R & D Systems); test: ELISA saturation binding, PDL1-Fc adsorbed
Experimental: as §3

[17] = target: T1, mouse PDL1 (R&D Systems); test: phage ELISA on adsorbed mouse PDL1, PD1-Fc as competitor
Source text: Bound phage were visualized with an anti-M13-HRP conjugate (GE Healthcare, Piscataway, N.Y.) and developed with the chromogenic substrate tetramethyl benzidine (TMB) (Thermo Scientific, Rockford, Ill.).

T3 sequence (Q9NZQ7 19-239 limits assumed): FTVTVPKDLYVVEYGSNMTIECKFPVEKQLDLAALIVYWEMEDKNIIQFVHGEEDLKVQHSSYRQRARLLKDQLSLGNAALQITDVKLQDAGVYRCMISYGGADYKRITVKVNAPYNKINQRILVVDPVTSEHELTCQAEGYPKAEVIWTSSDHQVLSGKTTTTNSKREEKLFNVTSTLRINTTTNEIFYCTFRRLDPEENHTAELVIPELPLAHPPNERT
T4 sequence (Q9EP73 19-238 limits assumed): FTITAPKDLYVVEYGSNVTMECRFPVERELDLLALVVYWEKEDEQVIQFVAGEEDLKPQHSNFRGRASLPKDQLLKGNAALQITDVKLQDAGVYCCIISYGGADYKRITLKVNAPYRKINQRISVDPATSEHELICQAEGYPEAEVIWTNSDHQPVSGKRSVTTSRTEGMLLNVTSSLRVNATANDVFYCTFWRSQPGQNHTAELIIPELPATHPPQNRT
T1 sequence (Q9EP73 19-238 limits assumed): as above
Chain of rat PDL1 (D4AE25 entry or part of it limits assumed, form in doubt): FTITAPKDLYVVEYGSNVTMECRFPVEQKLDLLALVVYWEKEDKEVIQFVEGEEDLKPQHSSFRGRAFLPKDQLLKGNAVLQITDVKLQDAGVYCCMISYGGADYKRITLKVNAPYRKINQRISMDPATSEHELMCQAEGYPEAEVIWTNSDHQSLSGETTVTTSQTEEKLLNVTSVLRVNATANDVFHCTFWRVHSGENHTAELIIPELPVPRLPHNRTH
T2 sequence (Q9NZQ7 19-239 limits assumed): as the sequence (Q9NZQ7 19-239 limits assumed) above
T8 sequence (G7PSE7 entry or part of it): as the sequence (Q9NZQ7 19-239 limits assumed) above, with A33T, A34S, S62N, R68Q, Q82R, F173L, T185A, T192I, H215L counted along it

B1: PDL1 c60 ScFv-phage (scFv)
scFv: EVQLLESGGGLVQPGGSLRLSCAASGFTFSSYAMSWVRQAPGKGLEWVSSIYSTGGATAYADSVKGRFTISRDNSKNTLYLQMNSLRAEDTAVYYCAKSSAGFDYWGQGTLVTVSSGGGGSGGGGSGGGGSTDIQMTQSPSSLSASVGDRVTITCRASQSISSYLNWYQQKPGKAPKLLIYYASTLQSGVPSRFSGSGSGTDFTLTISSLQPEDFATYYCQQDNGYPSTFGQGTKVEIKR
notes: also called clone 60
binding result [1]: binds
binding result [2]: binds

B2: anti-PDL1 antibody C5H9 (antibody, V domains shown)
VH: EVQLLESGGGLVQPGGSLRLSCAASGFTFSSYAMSWVRQAPGKGLEWVSSIWRNGIVTVYADSVKGRFTISRDNSKNTLYLQMNSLRAEDTAVYYCAKWSAAFDYWGQGTLVTVSS
VL: DIQMTQSPSSLSASVGDRVTITCRASQSISSYLNWYQQKPGKAPKLLIYYASTLQSGVPSRFSGSGSGTDFTLTISSLQPEDFATYYCQQDNGYPSTFGQGTKVEIKR
notes: Fully human IgG; also called PDL1 C5H9
binding result [3]: binds
binding result [4]: binds
binding result [5]: no binding
binding result [6]: no binding
binding result [7]: no binding

B3: anti-PDL1 antibody G12H9 (antibody, V domains shown)
VH: EVQLLESGGGLVQPGGSLRLSCAASGFTFSSYAMSWVRQAPGKGLEWVSSIWYQGLVTVYADSVKGRFTISRDNSKNTLYLQMNSLRAEDTAVYYCAKWSAAFDYWGQGTLVTVSS
VL: DIQMTQSPSSLSASVGDRVTITCRASQSISSYLNWYQQKPGKAPKLLIYYASTLQSGVPSRFSGSGSGTDFTLTISSLQPEDFATYYCQQDNGYPSTFGQGTKVEIKR
notes: Fully human IgG; also called PDL1 G12H9
binding result [3]: binds

B4: anti-PDL1 antibody G12E10 (antibody, V domains shown)
VH: EVQLLESGGGLVQPGGSLRLSCAASGFTFSSYAMSWVRQAPGKGLEWVSSIWYQGLVTVYADSVKGRFTISRDNSKNTLYLQMNSLRAEDTAVYYCAKWSKGFDYWGQGTLVTVSS
VL: DIQMTQSPSSLSASVGDRVTITCRASQSISSYLNWYQQKPGKAPKLLIYYASTLQSGVPSRFSGSGSGTDFTLTISSLQPEDFATYYCQQDNGYPSTFGQGTKVEIKR
notes: Fully human IgG; also called PDL1 G12E10
binding result [3]: binds

B5: anti-PDL1 antibody G12B10 (antibody, V domains shown)
VH: EVQLLESGGGLVQPGGSLRLSCAASGFTFSSYAMSWVRQAPGKGLEWVSSIWYQGLVTVYADSVKGRFTISRDNSKNTLYLQMNSLRAEDTAVYYCAKWSAGYDYWGQGTLVTVSS
VL: DIQMTQSPSSLSASVGDRVTITCRASQSISSYLNWYQQKPGKAPKLLIYYASTLQSGVPSRFSGSGSGTDFTLTISSLQPEDFATYYCQQDNGYPSTFGQGTKVEIKR
notes: Fully human IgG; also called PDL1 G12B10
binding result [3]: binds

B6: anti-PDL1 antibody C5B10 (antibody, V domains shown)
VH: EVQLLESGGGLVQPGGSLRLSCAASGFTFSSYAMSWVRQAPGKGLEWVSSIWRNGIVTVYADSVKGRFTISRDNSKNTLYLQMNSLRAEDTAVYYCAKWSAGYDYWGQGTLVTVSS
VL: DIQMTQSPSSLSASVGDRVTITCRASQSISSYLNWYQQKPGKAPKLLIYYASTLQSGVPSRFSGSGSGTDFTLTISSLQPEDFATYYCQQDNGYPSTFGQGTKVEIKR
notes: Fully human IgG; also called PDL1 C5B10
binding result [3]: binds
binding result [5]: no binding
binding result [7]: no binding

B7: PDL1 h9 Fab-phage (Fab, V domains shown)
VH: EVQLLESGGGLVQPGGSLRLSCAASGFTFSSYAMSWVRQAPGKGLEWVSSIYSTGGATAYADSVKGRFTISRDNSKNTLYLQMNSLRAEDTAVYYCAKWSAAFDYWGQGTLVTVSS
VL: DIQMTQSPSSLSASVGDRVTITCRASQSISSYLNWYQQKPGKAPKLLIYYASTLQSGVPSRFSGSGSGTDFTLTISSLQPEDFATYYCQQDNGYPSTFGQGTKVEIKR
notes: also called CDR3 clone H9
binding result [8]: no binding
binding result [9]: binds

B8: anti-PDL1 antibody C5H9v2 (antibody, V domains shown)
VH: EVQLLESGGGLVQPGGSLRLSCAASGFTFSSYAMSWVRQAPGKGLEWVSSIWRNGIVTVYADSVKGRFTISRDNSKNTLYLQMNSLRAEDTAVYYCAKWSAAFDYWGQGTLVTVSS
VL: DIQMTQSPSSLSASVGDRVTITCRASQSISSYLNWYQQKPGKAPKLLIYAASSLQSGVPSRFSGSGSGTDFTLTISSLQPEDFATYYCQQDNGYPSTFGGGTKVEIKR
notes: IgG; also called anti-PDL1 parental antibody C5H9v2
EC50 [10]: 0.28 nM
EC50 [11]: 0.31 nM
EC50 [12]: 0.25 nM
EC50 [13]: 0.3 nM

B9: anti-PDL1 antibody C5E10 (antibody, V domains shown)
VH: EVQLLESGGGLVQPGGSLRLSCAASGFTFSSYAMSWVRQAPGKGLEWVSSIWRNGIVTVYADSVKGRFTISRDNSKNTLYLQMNSLRAEDTAVYYCAKWSKGFDYWGQGTLVTVSS
VL: DIQMTQSPSSLSASVGDRVTITCRASQSISSYLNWYQQKPGKAPKLLIYYASTLQSGVPSRFSGSGSGTDFTLTISSLQPEDFATYYCQQDNGYPSTFGQGTKVEIKR
notes: Fully human IgG
binding result [3]: binds
binding result [5]: no binding
binding result [7]: no binding

B10: fully human anti-PDL1 c60 IgG (antibody, V domains shown)
VH: EVQLLESGGGLVQPGGSLRLSCAASGFTFSSYAMSWVRQAPGKGLEWVSSIYSTGGATAYADSVKGRFTISRDNSKNTLYLQMNSLRAEDTAVYYCAKSSAGFDYWGQGTLVTVSS
VL: DIQMTQSPSSLSASVGDRVTITCRASQSISSYLNWYQQKPGKAPKLLIYYASTLQSGVPSRFSGSGSGTDFTLTISSLQPEDFATYYCQQDNGYPSTFGQGTKVEIKR
notes: Fully human IgG with the variable domains of PDL1 c60; also called anti-PDL1 clone 60:IgG
Kd [14]: ~1 nM
Kd [15]: 1 nM
Kd [16]: 30 nM

B11: mouse PD1-Fc (R&D Systems) (Fc fusion, UniProt Q02242 25-167, looked up)
chain: LEVPNGPWRSLTFYPAWLTVSEGANATFTCSLSNWSEDLMLNWNRLSPSNQTEKQAAFCNGLSQPVQDARFQIIQLPNRHDFHMNILDTRRNDSGIYLCGAISLHPKAKIEESPGAELVVTERILETSTRYPSPSPKPEGRFQ
notes: Bought reagent; also called mPD1; not shown: Fc part of the bought fusion protein; not described
binding result [17]: binds
